Laboratory results taken from publication PMC3633241 (The Febs Journal, 2013).

Molecular target: the molecule itself
Assay: SDS/PAGE with western blotting

B1: Pho89–Myc-His6 (full-length recombinant Saccharomyces cerevisiae high-affinity phosphate transporter Pho89 fusion protein) (natural protein, S. cerevisiae, UniProt P38361 1-574, looked up)
chain: MALHQFDYIFAIAMLFAFLDAFNIGANDVANSFASSISSRSLKYWQAMVLAGLCEFLGAVLAGARVSGTIKNNIIDSSIFTNDPAVLMLTMTSALIGSSCWLTFATAIGMPVSTTHSIVGGTIGAGIAAGGANGVVWGWSGVSQIIASWFIAPILAGAIAAIVFSISRFSVLEVKSLERSIKNALLLVGVLVFATFSILTMLIVWKGSPNLHLDDLSETETAVSIVLTGAIASIVYFIFFYPFYRRKVLDQDWTLKLIDIFRGPSFYFKSTDDIPPMPEGHQLTIDYYEGRRNLGTTVSVEDEENKAASNSNDSVKNKEDIQEVDLVRTETEPETKLSTKQYWWSLLKQGPKKWPLLFWLVISHGWTQDVIHAQVNDRDMLSGDLKGMYERSKFYDNRVEYIYSVLQAITAATMSFAHGANDVANATGPLSAVYVIWKTNTIGAKSEVPVWVLAYGGVALVIGCWTYGYNIIKNLGNKMILQSPSRGFSIELAVAITTVMATQLGIPTSTTQIAVGGIVAVGLCNKDLKSVNWRMVAWCYSGWFLTLPIAGLIAGIINGIILNAPRFGVEYQMT
binding result: binds
